Reference: patent US7939307B2, “Deletion mutant of multi-copper oxidase and its use in dyeing” (National University Corporation Kanazawa University, priority 2005, dated 2011)

Experiments:
[1] = Oxidative polymerization activity for representative substrates of laccase (Test Example 1); format: biochemical; conditions: pH 5.5
Experimental: 2,6-dimethoxyphenol, p-phenylenediamine, 2,2′-azino-bis(3-ethylbenzothiazoline-6-sulfonate) (ABTS), 2-methoxyphenol, and catechol were dissolved in an ion-exchange distilled water, respectively, to each give a 50 mM aqueous solution.
4-hydroxyindole and p-aminophenol were dissolved in dimethylsulfoxide (DMSO), respectively, to each give a 50 mM DMSO solution.
o-aminophenol was dissolved in DMSO, and then dissolved in an ion-exchange distilled water, to give a 50 mM DMSO (10%)-aqueous solution.
1-nitroso-2-naphthol-3,6-disulfonic acid disodium (NNS) was dissolved in an ion-exchange distilled water to give a 5 mM aqueous solution.
Bilirubin was dissolved in DMSO to give a 0.5 mM DMSO solution.
Syringaldazine was dissolved in ethanol to give a 5 mM ethanol solution.
L-tyrosine was dissolved in a 0.1 M phosphate buffer solution (pH 6.5), to give a 1 mM solution.
(§1) For the following method, an acetate buffer solution (pH 5.5) was used as the buffer solution.
For the substrates other than NNS and bilirubin, 0.88 mL of a 0.1 M buffer solution and 0.1 mL of the substrate solution were mixed in a cuvette (1.5 mL UV disposable cell, […], and mixed by inversion. The change in absorbance at each wavelength (measurement wavelength shown in Table 1) from 0 to 30 seconds was measured using a spectrophotometer (UV-2459, manufactured by SHIMADZU).
(§2) For NNS and bilirubin, 0.96 mL of a 0.1 M buffer solution and 0.02 mL of the substrate solution were mixed in a cuvette (1.5 mL UV disposable cell, manufactured by TOP), 0.02 mL of an aqueous solution of mCueO (1) was added thereto, and mixed by inversion. The change in absorbance at each wavelength (measurement wavelength shown in Table 1) from 0 to 30 seconds was measured using a spectrophotometer (UV-2459, manufactured by SHIMADZU).
For comparison, the oxidative polymerization activity of an enzyme prepared by adding a histidine tag to the C-terminus of wild-type mature CueO (SEQ ID NO: 8, hereinafter, simply referred to as ‘wild-type CueO’) was measured in the same manner. […] The change in absorbance in 30 seconds which is measured in the above manner was given in terms of change in absorbance in 1 minute (same applies below).

[2] = Oxidative polymerization activity for various substrates (Test Example 2); format: biochemical; conditions: pH 5.5
Experimental: For substrates other than catechin, lignin (derived from rice), and lignin (derived from conifer), each substrate was dissolved in DMSO, and then dissolved in an ion-exchange water, to give a 1 mM DMSO (1.0%) aqueous solution.
For catechin, lignin (derived from rice), and lignin (derived from conifer), each substrate was dissolved in DMSO, and then dissolved in an ion-exchange distilled water, to give a 2 mg/mL DMSO (1.0%) aqueous solution.
as §1
as §2, with “0.88 mL” for “For NNS and bilirubin, 0.96 mL”, “and 0.1” for “and 0.02”, “cuvette (1.0” for “cuvette (1.5”, “mL quartz” for “mL UV disposable”, “by SHIMADZU),” for “by TOP),”, “Table 2)” for “Table 1)”
For comparison, the oxidative polymerization activity of wild-type CueO was measured in the same manner.

[3] = substrate o-Aminophenol, 420 nm
[4] = substrate p-Phenylenediamine, 470 nm

B1: Wild-type CueO: enzyme prepared by adding a histidine tag to the C-terminus of wild-type mature CueO derived from Escherichia coli (protein, listed as Escherichia coli)
chain: MQRRDFLKYSVALGVASALPLWSRAVFAAERPTLPIPDLLTTDARNRIQLTIGAGQSTFGGKTATTWGYNGNLLGPAVKLQRGKAVTVDIYNQLTEETTLHWHGLEVPGEVDGGPQGIIPPGGKRSVTLNVDQPAATCWFHPHQHGKTGRQVAMGLAGLVVIEDDEILKLMLPKQWGIDDVPVIVQDKKFSADGQIDYQLDVMTAAVGWFGDTLLTNGAIYPQHAAPRGWLRLRLLNGCNARSLNFATSDNRPLYVIASDGGLLPEPVKVSELPVLMGERFEVLVEVNDNKPFDLVTLPVSQMGMAIAPFDKPHPVMRIQPIAISASGALPDTLSSLPALPSLEGLTVRKLQLSMDPMLDMMGMQMLMEKYGDQAMAGMDHSQMMGHMGHGNMNHMNHGGKFDFHHANKINGQAFDMNKPMFAAAKGQYERWVISGVGDMMLHPFHIHGTQFRILSENGKPPAAHRAGWKDTVKVEGNVSEVLVKFNHDAPKEHAYMAHCHLLEHEDTGMMLGFTV
- Activity (U) ([1]; substrate 2-Methoxyphenol, 470 nm): 0.00 U
- Activity (U) ([1]; substrate ABTS, 420 nm): 40.22 U
- Activity (U) ([1]; substrate Bilirubin, 530 nm): 0.53 U
- Activity (U) ([1]; substrate Catechol, 400 nm): 0.00 U
- Activity (U) ([1]; substrate L-Tyrosine, 490 nm): 0.00 U
- Activity (U) ([1]; substrate NNS, 490 nm): 0.00 U
- Activity (U) ([1]; substrate Syringaldazine, 530 nm): 4.73 U
- Activity (U) [1, 3]: 14.06 U
- Activity (U) ([1]; substrate p-Aminophenol, 400 nm): 3.37 U
- Activity (U) [1, 4]: 9.70 U
- Activity (U) ([2]; substrate 1,3-Dihydroxynaphthalene, 450 nm): 2.53 U
- Activity (U) ([2]; substrate 1,5-Dihydroxynaphthalene, 470 nm): 0.78 U
- Activity (U) ([2]; substrate 1-Naphthol, 405 nm): 0.00 U
- Activity (U) ([2]; substrate 2,4-Diaminophenol dihydrochloride, 470 nm): 69.83 U
- Activity (U) ([2]; substrate 2,5-Diaminotoluene sulfate, 470 nm): 44.55 U
- Activity (U) ([2]; substrate 2,6-Dihydroxynaphthalene, 405 nm): 0.00 U
- Activity (U) ([2]; substrate 2,6-Dimethoxy-4-metylphenol, 405 nm): 0.00 U
- Activity (U) ([2]; substrate 2,6-Dimethoxyphenol, 470 nm): 1.43 U
- Activity (U) ([2]; substrate 2-Chloro-1,4-phenylenediamine, 450 nm): 3.10 U
- Activity (U) ([2]; substrate 2-Methoxyphenol, 450 nm): 0.00 U
- Activity (U) ([2]; substrate 4-Hydroxyindole, 405 nm): 3.33 U
- Activity (U) ([2]; substrate 5-Aminoorthocresol, 405 nm): 0.00 U
- Activity (U) ([2]; substrate 5-Hydroxyindole, 405 nm): 0.00 U
- Activity (U) ([2]; substrate Catechin, 405 nm): 0.00 U
- Activity (U) ([2]; substrate Catechol, 405 nm): 0.00 U
- Activity (U) ([2]; substrate Gallic acid, 405 nm): 1.78 U
- Activity (U) ([2]; substrate Hydroquinone, 405 nm): 0.00 U
- Activity (U) ([2]; substrate Lignin (derived from conifer), 450 nm): 0.00 U
- Activity (U) ([2]; substrate Lignin (derived from rice), 450 nm): 0.00 U
- Activity (U) ([2]; substrate N,N-Dimethyl-p-phenylenediamine, 470 nm): 59.35 U
- Activity (U) ([2]; substrate Propyl gallate, 405 nm): 0.00 U
- Activity (U) ([2]; substrate Protocatechuic acid, 405 nm): 0.00 U
- Activity (U) ([2]; substrate Pyrogallol, 405 nm): 9.44 U
- Activity (U) ([2]; substrate Resorcinol, 405 nm): 0.00 U
- Activity (U) ([2]; substrate Tolylene-3,4-diamine, 470 nm): 0.00 U
- Activity (U) ([2]; substrate Trimethylhydroquinone, 405 nm): 0.00 U
- Activity (U) ([2]; substrate m-Aminophenol, 405 nm): 0.00 U
- Activity (U) ([2]; substrate m-Phenylenediamine, 405 nm): 0.00 U
- Activity (U) [2, 3]: 14.06 U
- Activity (U) ([2]; substrate o-Phenylenediamine, 430 nm): 0.00 U
- Activity (U) ([2]; substrate p-Aminodiphenylamine, 470 nm): 48.86 U
- Activity (U) ([2]; substrate p-Aminophenol, 405 nm): 3.37 U
- Activity (U) ([2]; substrate p-Methylaminophenol sulfate, 470 nm): 6.51 U
- Activity (U) [2, 4]: 19.55 U
